Target: endostatin (UniProt P39060)
Test: SPR (Biacore), Fn F4-5 immobilized on CM5 chip, concentration series of endostatin

Sequence of endostatin (P39060 1572-1754): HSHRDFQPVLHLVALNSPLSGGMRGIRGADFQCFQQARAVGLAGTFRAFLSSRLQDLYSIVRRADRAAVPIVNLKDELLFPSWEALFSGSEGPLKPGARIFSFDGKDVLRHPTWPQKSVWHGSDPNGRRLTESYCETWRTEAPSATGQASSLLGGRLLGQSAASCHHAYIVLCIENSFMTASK

- concentration of ligand that results in half maximum binding: 800 nM
Substance: Fn F4-5-His6 (from UniProt P02751 182-276)
